As usually defined, the Kd is the concentration at which binding is half-saturated. In general, stoichiometry N refers to a count of units in the complex or per binding partner.

The source of these data is publication PMC3561853 (Journal of Cell Science, 2012).

First the molecules themselves.
B1: SH2 domain of Vav1 (669-771) (domain or fragment, mouse, UniProt P27870 669-771, looked up)
chain: HLWYAGPMERAGAEGILTNRSDGTYLVRQRVKDTAEFAISIKYNVEVKHIKIMTSEGLYRITEKKAFRGLLELVEFYQQNSLKDCFKSLDTTLQFPYKEPERR
B2: SH3A-SH2-SH3B fragment of Vav1 (596-845) (domain or fragment, mouse, UniProt P27870 596-845, looked up)
chain: KMEVFQEYYGIPPPPGAFGPFLRLNPGDIVELTKAEAEHNWWEGRNTATNEVGWFPCNRVHPYVHGPPQDLSVHLWYAGPMERAGAEGILTNRSDGTYLVRQRVKDTAEFAISIKYNVEVKHIKIMTSEGLYRITEKKAFRGLLELVEFYQQNSLKDCFKSLDTTLQFPYKEPERRAISKPPAGSTKYFGTAKARYDFCARDRSELSLKEGDIIKILNKKGQQGWWRGEIYGRIGWFPSNYVEEDYSEYC
B3: SLP76 pY128 peptide (peptide)
peptide: DGD[pY]ESPNE
B4: SH2-SH3B fragment of Vav1 (669-845) (domain or fragment, mouse, UniProt P27870 669-845, looked up)
chain: HLWYAGPMERAGAEGILTNRSDGTYLVRQRVKDTAEFAISIKYNVEVKHIKIMTSEGLYRITEKKAFRGLLELVEFYQQNSLKDCFKSLDTTLQFPYKEPERRAISKPPAGSTKYFGTAKARYDFCARDRSELSLKEGDIIKILNKKGQQGWWRGEIYGRIGWFPSNYVEEDYSEYC
B5: SLP76 pY112 peptide (peptide)
peptide: EDD[pY]ESPND

Assay [1] deals with T1, SH2-SH3B fragment of Vav1 (669–845) (Mus musculus, UniProt P27870).
T1 sequence (P27870 669-845): B4 chain
Briefly: Isothermal titration calorimetry. Format: binding. For orientation: Isothermal titration calorimetry measures the heat released or taken up as one component is titrated into another.

For assay [2], the target named is T2, SH3A-SH2 fragment of Vav1 (596–771) (Mus musculus, UniProt P27870).
T2 sequence (P27870 596-771): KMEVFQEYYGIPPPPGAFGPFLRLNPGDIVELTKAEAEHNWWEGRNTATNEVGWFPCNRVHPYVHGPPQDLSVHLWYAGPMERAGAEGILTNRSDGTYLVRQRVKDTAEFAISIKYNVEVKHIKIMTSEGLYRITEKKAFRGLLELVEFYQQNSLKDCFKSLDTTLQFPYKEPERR
Briefly: Isothermal titration calorimetry. Format: binding.

Assay [3] addresses SLP76 2pY peptide (pY112 and pY128) (mouse, phosphotyrosine at Y112 and at Y128 (EDDp…pYESPNE)). Briefly: ITC.
Assay [4] deals with T3, SH3A-SH2 fragment of Vav1 (596-771) (mouse, UniProt P27870 596-771).
T3 sequence (looked up): T2 sequence (P27870 596-771)
Briefly: ITC.

The target of assay [5] is B2. Briefly: ITC.
Assay [6] deals with B4. Briefly: ITC.
The target of assay [7] is B1. Briefly: ITC.

Where a SMILES comes first, the peptide text is derived from it. Where no end group is shown, it is not given here. [ ]: non-standard residue; d: D form. pY = N[C@@H](Cc1ccc(OP(=O)(O)O)cc1)C(=O)O

On to `NC(=O)C[C@H](NC(=O)[C@@H]1CCCN1C(=O)[C@H](CO)NC(=O)[C@H](CCC(=O)O)NC(=O)[C@H](Cc1ccc(OP(=O)(O)O)cc1)NC(=O)[C@H](CC(=O)O)NC(=O)CNC(=O)[C@@H](N)CC(=O)O)C(=O)N[C@@H](CCC(=O)O)C(=O)O` [pY128] (HELM PEPTIDE1{D.G.D.[O=C([C@H](Cc1ccc(OP(=O)(O)O)cc1)N[*:1])[*:2]].E.S.P.N.E}$$$$V2.0), for which, in assay [1], the Kd was 1.06 µM.
For `NC(=O)C[C@H](NC(=O)[C@@H]1CCCN1C(=O)[C@H](CO)NC(=O)[C@H](CCC(=O)O)NC(=O)[C@H](Cc1ccc(OP(=O)(O)O)cc1)NC(=O)[C@H](CC(=O)O)NC(=O)[C@H](CC(=O)O)NC(=O)[C@@H](N)CCC(=O)O)C(=O)N[C@@H](CC(=O)O)C(=O)O` [pY112] (HELM PEPTIDE1{E.D.D.[O=C([C@H](Cc1ccc(OP(=O)(O)O)cc1)N[*:1])[*:2]].E.S.P.N.D}$$$$V2.0), the Kd in assay [2] was 1.06 µM.
Consider B1, for which the “stoichiometry N” value in assay [3] was 2 SH2 domain:peptide.
On the same count and under the same terms, for B2 the value was 2.
With B3, the dissociation constant (Kd) was 1.04 µM in assay [4] and 1.35 µM in assay [5].
As to B4, the “stoichiometry N” value in assay [3] came out at 2.
In the case of B5, the equilibrium dissociation constant (Kd) in assay [5] came to 1.85 µM; in assay [6], 1.32 µM; in assay [7], 1.64 µM.
